B1: Plasmodium yoelii TRAP ectodomain (PyTRAP) (domain or fragment)
chain: NGQETLDEIKYSEEVCTEQIDIHILLDGSGSIGYSNWKAHVIPMLNTLVDNLNISNDEINVSLTLFSTNSRELIKLKGYGSTSKDSLRFILAHLQNNYSPNGNTNLTSALLVVDTLINERMYRPDAIQLAIILTDGIPNDLPRSTAVVHQLKRKHVNVAIIGVGAGVNNEYNRILVGCDRYAPCPYYSSGSWNEAQNMIKPFLTKVCQEVERIAHCGKWEEWSECSTTCDEGRKIRRRQILHPGCVSEMTTPCKVRDCPQIPIPPVIPNKIPEKPSNPEEPVNPNDPNDPNNPNNPNNPNNPNNPNNPNNPNNPNNPNNPNNPNNPNNPNNPNNPNNPNNPNNPNNPNNPNNPNNPNNPNDPSNPNNPNPKKRNPKRRNPNKPKPNKPNPNKPNPNEPSNPNKPNPNEPSNPNKPNPNEPSNPNKPNPNEPSNPNKPNPNEPLNPNEPSNPNEPSNPNAPSNPNEPSNPNEPSNPNEPSNPNEPSNPNEPSNPKKPSNPNEPSNPNEPLNPNEPSNPNEPSNPNEPSNPEEPSNPKEPSNPNEPSNPEEPNPEEPSNPKEPSNPEEPINPEELNPKEPSNPEESNPKEPINPEESNPKEPINPEDNENPLIIQDEPIEPRNDSNVIPILPIIPQKGNNIPSNLPENPSDSEVEYPRPNDNGENSNNTMKSKKNIPNEPIPSPGDNPYKGHEERIPKPHRSNDDYVYDNNVNKNNKDEPEIPNNEYEEDKNKNQSKSNNGYK
modifications: site-specific biotinylation using BirA ligase, when required
B2: Plasmodium falciparum TRAP ectodomain (PfTRAP) (domain or fragment)
chain: RDVQNNIVDEIKYSEEVCNDQVDLYLLMDCSGSIRRHNWVNHAVPLAMKLIQQLNLNDNAIHLYVNVFSNNAKEIIRLHSDASKNKEKALIIIRSLLSTNLPYGRTNLTDALLQVRKHLNDRINRENANQLVVILTDGIPDSIQDSLKESRKLSDRGVKIAVFGIGQGINVAFNRFLVGCHPSDGKCNLYADSAWENVKNVIGPFMKAVCVEVEKTASCGVWDEWSPCSVTCGKGTRSRKREILHEGCTSEIQEQCEEERCPPKWEPLDVPDEPEDDQPRPRGDNSSVQKPEENIIDNNPQEPSPNPEEGKDENPNGFDLDENPENPPNPDIPEQKPNIPEDSEKEVPSDVPKNPEDDREENFDIPKKPENKHDNQNNLPNDKSDRNIPYSPLPPKVLDNERKQSDPQSQDNNGNRHVPNSEDRETRPHGRNNENRSYNRKYNDTPKHPEREEHEKPDNNKKKGESDNKYK
modifications: site-specific biotinylation using BirA ligase, when required

Key:
Experiment in all cases: BLI
TY07 = molecular target: TY07
TY01 = molecular target: TY01
TY19 = molecular target: TY19
AKBR-1 = molecular target: AKBR-1
AKBR-5 = molecular target: AKBR-5

Binder | Kd (TY07) [nM] | koff (TY07) [s⁻¹] | Kd (TY01) [nM] | koff (TY01) [s⁻¹] | Kd (TY19) [nM] | koff (TY19) [s⁻¹] | Kd (AKBR-1) [nM] | koff (AKBR-1) [s⁻¹] | Kd (AKBR-5) [nM] | koff (AKBR-5) [s⁻¹]
B1 | 26.5 | 0.00397 | 1.65 | 0.000498 | 307 | 0.0495 |  |  |  | 
B2 |  |  |  |  |  |  | 194 | 0.00368 | 52.9 | 0.00611

From PMC9135708 (2022)
